The target in assay [1] is Human fibronectin purified from plasma (human). Nature of the assay: single-cell force spectroscopy (AFM); single bacterium on a polydopamine colloidal probe against Fn-coated gold substrates in PBS, room temperature, applied force 250 pN, approach and retraction 1,000 nm/s, contact time 100 ms.
Assay [2] shares this target. Kind of assay: single-molecule force spectroscopy (AFM); AFM tips functionalized with Fn (EDC/NHS) against bacteria immobilised on polystyrene, PBS, room temperature, applied force 250 pN, approach and retraction 1,000 nm/s, contact time 100 ms.
In assay [3] the target is SpsD_(520-846) (C domain, connecting region of SpsD) (Staphylococcus pseudintermedius ED99). Kind of assay: SPR; Biacore X100; SpsD520-846 or SpsL538-823 covalently immobilised on CM5 chips; 2-fold dilution series of Fn in PBS with 0.005% Tween 20, 30 ul/min, 22°C; steady-state response fitted to the Langmuir equation (one-site model). A general note: In SPR one partner is held on a chip, and binding of the other changes the refractive index at the surface.

The target of assay [4] is SpsL_(538-823) (R domain, repetitive region of SpsL) (Staphylococcus pseudintermedius ED99). The assay is described as above.
For assay [5], the target named is Human fibronectin purified from plasma (human). Nature of the assay: single-molecule force spectroscopy (AFM), dynamic force spectroscopy; Fn tips against immobilised bacteria, PBS, room temperature; retraction speeds 0.5, 1, 3, 5 and 10 um/s to vary the loading rate.

This is an account of results in publication PMC7343985.

With “SpsL on the surface of S. pseudintermedius ED99 spsD mutant cells (natural protein)”, in assay [1], the adhesion force (3 cells) is 168 pN and the frequency of adhesive force curves was found to be 66%. The substance also registered an adhesion force (3 cells) in assay [2] of 158 pN.

What is called Kd is the concentration at which binding is half-saturated. The low end stands for tighter binding, the high end for weaker binding. With “Human fibronectin purified from plasma (natural protein)”, the Kd amounted to 0.0012 µM in assay [3] and 0.05 µM in assay [4].

In assay [5], “SpsD on the surface of S. pseudintermedius ED99 spsL mutant cells (natural protein)” returned a bond strength at low tensile force of 0.25 nN and a bond strength under mechanical tension of 2 nN. In assay [1], this substance came in with an adhesion force (cell 1) of 1440 pN, an adhesion force (cell 2) of 1750 pN and an adhesion force (cell 3) of 1540 pN. In assay [2], this substance showed an unbinding force (cell 1) of 1500 pN, an unbinding force (cell 2) of 1700 pN and an unbinding force (cell 3) of 1820 pN.
